These are literature values, as cited in article PMC2562372.

Some targets named below: NRP1 (Homo sapiens) (UniProt O14786); VEGFR2 (Homo sapiens) (UniProt P35968); VEGFR1 (Homo sapiens) (UniProt P17948).
Sequence of UniProt P35968 (P35968 20-1356): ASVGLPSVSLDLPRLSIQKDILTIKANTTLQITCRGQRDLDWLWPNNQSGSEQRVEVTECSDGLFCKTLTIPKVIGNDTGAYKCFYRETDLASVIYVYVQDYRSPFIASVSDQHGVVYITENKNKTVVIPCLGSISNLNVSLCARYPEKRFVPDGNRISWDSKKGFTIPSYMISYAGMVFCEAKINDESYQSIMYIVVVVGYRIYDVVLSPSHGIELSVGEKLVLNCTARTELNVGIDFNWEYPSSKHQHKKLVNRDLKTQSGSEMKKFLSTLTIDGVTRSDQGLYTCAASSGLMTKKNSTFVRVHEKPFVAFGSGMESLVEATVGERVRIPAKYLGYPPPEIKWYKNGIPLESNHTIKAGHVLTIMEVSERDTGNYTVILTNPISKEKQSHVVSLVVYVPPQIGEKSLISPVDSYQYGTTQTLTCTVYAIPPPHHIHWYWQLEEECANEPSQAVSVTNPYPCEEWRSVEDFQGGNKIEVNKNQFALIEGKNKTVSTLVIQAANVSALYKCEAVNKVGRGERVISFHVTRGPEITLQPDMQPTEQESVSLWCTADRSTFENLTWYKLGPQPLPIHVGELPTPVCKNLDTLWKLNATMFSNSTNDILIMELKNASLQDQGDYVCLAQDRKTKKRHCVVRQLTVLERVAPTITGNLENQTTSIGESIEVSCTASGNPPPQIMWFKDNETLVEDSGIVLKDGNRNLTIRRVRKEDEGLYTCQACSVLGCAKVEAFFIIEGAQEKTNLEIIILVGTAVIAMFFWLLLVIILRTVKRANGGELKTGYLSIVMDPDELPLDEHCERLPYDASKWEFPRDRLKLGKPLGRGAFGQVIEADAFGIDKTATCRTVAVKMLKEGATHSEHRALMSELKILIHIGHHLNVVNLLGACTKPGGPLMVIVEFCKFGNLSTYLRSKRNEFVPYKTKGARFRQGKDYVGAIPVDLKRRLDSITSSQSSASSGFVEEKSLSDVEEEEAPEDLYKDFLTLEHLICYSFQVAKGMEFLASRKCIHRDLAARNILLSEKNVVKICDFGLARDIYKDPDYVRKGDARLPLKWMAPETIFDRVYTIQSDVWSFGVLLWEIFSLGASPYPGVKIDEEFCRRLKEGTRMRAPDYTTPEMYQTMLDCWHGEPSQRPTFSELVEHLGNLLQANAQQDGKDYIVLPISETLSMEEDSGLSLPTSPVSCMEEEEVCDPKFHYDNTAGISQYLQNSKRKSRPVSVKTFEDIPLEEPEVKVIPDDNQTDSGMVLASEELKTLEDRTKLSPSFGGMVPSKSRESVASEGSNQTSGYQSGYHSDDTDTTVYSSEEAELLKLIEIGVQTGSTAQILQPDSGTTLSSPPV
Sequence of UniProt O14786 (O14786 22-923): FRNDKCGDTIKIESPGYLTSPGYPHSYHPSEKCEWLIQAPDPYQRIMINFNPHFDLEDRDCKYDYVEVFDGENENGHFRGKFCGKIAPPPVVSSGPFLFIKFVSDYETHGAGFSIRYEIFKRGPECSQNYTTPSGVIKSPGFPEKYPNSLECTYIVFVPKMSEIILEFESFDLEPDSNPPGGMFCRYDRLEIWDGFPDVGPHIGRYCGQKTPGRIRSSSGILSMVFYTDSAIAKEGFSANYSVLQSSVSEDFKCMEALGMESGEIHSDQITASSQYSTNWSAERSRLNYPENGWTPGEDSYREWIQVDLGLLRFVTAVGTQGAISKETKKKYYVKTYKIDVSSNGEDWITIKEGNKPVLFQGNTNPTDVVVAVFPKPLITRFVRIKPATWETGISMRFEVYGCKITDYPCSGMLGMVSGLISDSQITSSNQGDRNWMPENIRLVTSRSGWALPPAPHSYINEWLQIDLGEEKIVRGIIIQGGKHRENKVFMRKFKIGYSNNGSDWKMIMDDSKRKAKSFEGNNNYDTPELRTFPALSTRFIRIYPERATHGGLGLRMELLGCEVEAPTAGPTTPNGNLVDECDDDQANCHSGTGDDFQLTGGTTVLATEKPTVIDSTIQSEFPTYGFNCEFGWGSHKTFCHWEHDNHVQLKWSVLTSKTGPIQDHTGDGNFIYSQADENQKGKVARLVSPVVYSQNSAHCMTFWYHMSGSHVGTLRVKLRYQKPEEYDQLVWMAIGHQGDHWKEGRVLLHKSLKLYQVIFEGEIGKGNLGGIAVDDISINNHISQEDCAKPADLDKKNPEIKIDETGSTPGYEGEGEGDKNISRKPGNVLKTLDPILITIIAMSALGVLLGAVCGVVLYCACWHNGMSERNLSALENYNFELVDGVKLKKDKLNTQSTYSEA
Sequence of UniProt P17948 (P17948 27-1338): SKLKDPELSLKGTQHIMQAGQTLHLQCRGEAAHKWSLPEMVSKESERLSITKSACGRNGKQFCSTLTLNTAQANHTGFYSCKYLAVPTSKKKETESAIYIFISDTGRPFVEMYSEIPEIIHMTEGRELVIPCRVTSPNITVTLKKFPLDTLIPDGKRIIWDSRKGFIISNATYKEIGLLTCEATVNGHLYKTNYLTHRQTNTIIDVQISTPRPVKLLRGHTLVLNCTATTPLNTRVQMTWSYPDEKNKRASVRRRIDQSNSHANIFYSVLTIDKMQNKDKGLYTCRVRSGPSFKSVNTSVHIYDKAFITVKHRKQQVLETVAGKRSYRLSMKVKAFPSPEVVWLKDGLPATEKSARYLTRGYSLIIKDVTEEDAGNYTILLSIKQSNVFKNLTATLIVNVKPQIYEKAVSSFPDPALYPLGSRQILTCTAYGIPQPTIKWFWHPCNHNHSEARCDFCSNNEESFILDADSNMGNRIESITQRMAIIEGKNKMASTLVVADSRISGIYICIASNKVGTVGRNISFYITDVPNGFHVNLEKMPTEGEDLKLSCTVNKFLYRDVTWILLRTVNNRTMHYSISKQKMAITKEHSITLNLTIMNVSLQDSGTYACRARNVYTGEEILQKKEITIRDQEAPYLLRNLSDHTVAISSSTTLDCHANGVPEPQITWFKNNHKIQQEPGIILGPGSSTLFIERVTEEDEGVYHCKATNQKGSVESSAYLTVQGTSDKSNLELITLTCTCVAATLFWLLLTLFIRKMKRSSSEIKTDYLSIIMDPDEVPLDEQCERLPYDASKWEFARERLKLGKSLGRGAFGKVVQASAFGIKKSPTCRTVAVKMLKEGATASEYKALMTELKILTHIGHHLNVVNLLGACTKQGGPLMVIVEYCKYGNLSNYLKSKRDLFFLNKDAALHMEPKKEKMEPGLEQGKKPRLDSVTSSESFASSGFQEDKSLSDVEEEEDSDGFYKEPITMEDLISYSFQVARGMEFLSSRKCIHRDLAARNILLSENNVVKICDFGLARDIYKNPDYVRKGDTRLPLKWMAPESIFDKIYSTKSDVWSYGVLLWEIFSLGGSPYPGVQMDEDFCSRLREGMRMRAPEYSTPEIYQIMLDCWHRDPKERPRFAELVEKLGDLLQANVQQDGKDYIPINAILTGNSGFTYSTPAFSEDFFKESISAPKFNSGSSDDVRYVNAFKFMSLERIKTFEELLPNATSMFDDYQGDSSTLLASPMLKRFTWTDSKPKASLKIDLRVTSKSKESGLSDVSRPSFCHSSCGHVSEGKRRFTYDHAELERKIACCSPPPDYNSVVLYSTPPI

The term Kd denotes the free concentration of one partner at which half of the binding sites on the other are occupied at equilibrium, for simple one-to-one binding. In the case of VEGF165 (from UniProt P15692), the Kd with NRP1 (Homo sapiens) is 0.312 nM. Consider VEGF (from UniProt P15692), for which the figures for the Kd with VEGFR2 (Homo sapiens) and in the data set with VEGFR1 (Homo sapiens) were 0.1 nM and 0.033 nM, respectively.
